{
  "source": "patent US20240342310A1",
  "about": "(UNIVERSITY OF VIRGINIA PATENT FOUNDATION, published 2024)",
  "biological_target": "T1, fibronectin leucine rich transmembrane protein 3 (FLRT3) (UniProt Q9NZU0 29-649, limits assumed)",
  "T1 sequence (looked up)": "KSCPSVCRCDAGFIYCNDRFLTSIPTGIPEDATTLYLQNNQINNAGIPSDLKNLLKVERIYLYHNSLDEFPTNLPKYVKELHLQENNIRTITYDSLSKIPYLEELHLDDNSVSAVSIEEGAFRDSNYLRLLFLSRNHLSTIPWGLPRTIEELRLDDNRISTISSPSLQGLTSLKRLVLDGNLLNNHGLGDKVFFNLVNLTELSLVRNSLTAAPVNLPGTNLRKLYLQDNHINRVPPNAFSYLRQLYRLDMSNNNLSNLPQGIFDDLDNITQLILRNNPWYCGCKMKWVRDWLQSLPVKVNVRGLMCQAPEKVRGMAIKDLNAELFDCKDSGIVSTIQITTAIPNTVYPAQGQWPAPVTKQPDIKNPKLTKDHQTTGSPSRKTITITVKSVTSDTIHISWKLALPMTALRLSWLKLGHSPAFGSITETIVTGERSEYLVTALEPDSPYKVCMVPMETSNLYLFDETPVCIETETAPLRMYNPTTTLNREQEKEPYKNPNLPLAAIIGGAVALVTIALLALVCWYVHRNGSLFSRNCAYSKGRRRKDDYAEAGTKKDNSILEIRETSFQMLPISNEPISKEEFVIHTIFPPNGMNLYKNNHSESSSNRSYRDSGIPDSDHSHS",
  "test": "co-immunoprecipitation (data not shown)",
  "data": [
    {"binder": "circCCDC7-180aa (other, All other experiments on the protein used the C-terminally 3xFLAG-tagged form expressed from plenti-ciR-GFP-T2A; also called 180aa protein encoded by circCCDC7(15, 16, 17, 18, 19); CCDC719-15 encoded protein; not shown: 3xFLAG tag inserted just before the stop codon in the expression construct) MQVGNSQTKVKGEDSKNIPLEKETRKSLVSDSGGQRTSDKIQEYPQITAQSGRLIEKSSEKKRSSPAISDLSQILKSQDESAFLESSNEVSVAENQSYKSPSETHDKSLTTVSSSKEVQDSLSVGTLAQKNETVISPFILPPVLTESKKADVSEEQLQKMTEEQTYQAAEKSQESSTSGN", "values": [
      {"measurement": "binding result", "value": "no binding"}
    ]}
  ]
}
